The data set is described as follows: yeast display, Sf9 membrane polyspecificity reagent, FACS + sequencing; frameworks hold sequencing errors. In outline: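 Using colony PCR, genes from sorted yeast display clones were amplified, then sequenced on MiSeq at 2 × 250 and filtered by CDR length. The clones had been stained with 10% biotinylated, detergent-solubilized Sf9 membrane reagent for 1 hour at 4 °C and sorted by FACS into low and high (top ~1%) gates on anti-HA and streptavidin fluorescence. Polyreactivity labels come from the gate of origin.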
For the sequence “QVQLVESGGGLVQAGGSLRLSCAASGSTFRYYVMGWYRTAPGKERDLVAVISGSGGYTYYADSVKGRFTISRDNAKNTVYLQMNSLKPEDTAVYYCAAARKFIPGRGRTYDSWGQGTQVTVSS”, the “polyreactivity (PSR sort gate)” value is listed as “high polyreactivity”.
The entry for “QVQLVESGGGLVQAGGSLRLSCAASGSTFSANAMGWYRPAPGKERELVAAISRSGTRTYYADSVKGRFTISRDNAKNTVYLQMNSLKPEDTAVYYCAAYVYQYGYDYWGQGTQVTVSS” is “high polyreactivity”.
Next, “QVQLVESGGGLVQAGGSLRLSCAASGSTFSANTMGWYRQAPGKERELVAGITNTGDTYYADSVKGRFTISRDNAKNTVYFQMNSLKPEDTAVYYCAADSWRRTDGAYWSTVYYWGQGTQVTVSS”: “low polyreactivity”; “QVQLVESGGGLVQAGGSLRLSCAASGSTFSAYGMGWYRQAPGKERELVARISWNGGSTYYADSVKGRFTISRDNAKNTVYLQMNSLKPEDTAVYYCNTELVGHPDWLSWRYYYWGQGTQVTVSS”: “low polyreactivity”.
The entry for “QVQLVESGGGLVQAGGSLRLSCAASGSTFSDYAMGWYRQATGKERELVAAISKRGGSTYYADSVKGRFTISRDNAKNTVFLQMNSQKPEDTAVYYCNKESLYREFDYWGQGTQVTVSS” is “low polyreactivity”; for “QVQLVESGGGLVQAGGSLRLSCAASGSTFSDYTMGWYRQAPGKERELVAAITTIGGSTYYADSVKGRFTISRDNAKNTVYLQMNSLKPEDTAVYYCAAYYYYPFEYYYWGQGTQVTVSS” it is “low polyreactivity”; for “QVQLVESGGGLVQAGGSLRLSCAASGSTFSDYVMGWYRQAPGKEREFVAAISWTGGITYYADSVKGRFTISRDNAKNTVYLQMNSLKPEDTAVYYCAAKRKYYGNGYWGQGTQVTVSS” it is “high polyreactivity”.
Take “QVQLVESGGGLVQAGGSLRLSCAASGSTFSEYAMGWYRQAPGKERELVASITWSDDSTYYADSVKGRFTISRDNAKITVYLQMNSLKPEDSAVYYCAVRTGRRWWKFDYWGQGTQVTVSS”: the “polyreactivity (PSR sort gate)” value is “low polyreactivity”.
Next, “QVQLVESGGGLVQAGGSLRLSCAASGSTFSFYAMGWYRQAPGKERELVAAISRSGGSTFYADSVKGRFTISRDNAKNTFYLQMNSLKAEDTAVYYCAAEYAYVPGWYEYWGQGTQVTVSS”: “high polyreactivity”; “QVQLVESGGGLVQAGGSLRLSCAASGSTFSFYAMGWYRQAPGKERELVADITSGGSTYYADSVKGRFTISRDNAKNTVYLQMNSLKPEDTAVYYCAKADYGGDYYYQSGGLYYYWGQGTQVTVSS”: “low polyreactivity”.
In the case of “QVQLVESGGGLVQAGGSLRLSCAASGSTFSFYDMGWSRQAPGKERELVAAITGSGGTTYYADSVQGRFTISRDNAKNTVYFQMNSLKPEDTAVYFCAADSLESYPDYEYDFWGQGTQVTVSS”, the “polyreactivity (PSR sort gate)” value was “low polyreactivity”.
The entry for “QVQLVESGGGLVQAGGSLRLSCAASGSTFSFYDMGWYRQAPGKERELVAAITGSGGTTYYADSVKGRFTISRDNAKNTVYLQMNSLKPEDTAVYYCAADSLESYPDYEYDYWGQGTQVTVSS” is “low polyreactivity”.
In the case of “QVQLVESGGGLVQAGGSLRLSCAASGSTFSGNAMGWYRQAPGKERELVARIRWSTGSTYYADSVKGRFTISRDNAKNTVYLQMNSLKPEDTAVYYCNARGTPWRYGGDYWGQGTQVTVSS”, the “polyreactivity (PSR sort gate)” value is “low polyreactivity”.
The entry for “QVQLVESGGGLVQAGGSLRLSCAASGSTFSGNTMGWYRQAPGKERELVAAISRGGTRTNYADSVKGRFTISRDNAKNTVYLQMNSLKPEDTAVYYCAAGGSWGQNGYWGQGSQVTVSS” is “high polyreactivity”; for “QVQLVESGGGLVQAGGSLRLSCAASGSTFSGSVMGWDRPAPGKERELVAAISNRGGRTYYADSVKGRFTISRDNAKNTVYLQMNSLKPEDTAVYYCAARGVVDAGRTNRPYDYWGQGTQVTVSS” it is “low polyreactivity”; for “QVQLVESGGGLVQAGGSLRLSCAASGSTFSGYAMGWYRQAPGKERELVAAISSSGGGTYYADSVKGRFTISRDNAKNTDYLQMNSLKPEDTAVYYCAARVGYRYRKGRYDYWGKGTQVTVSS” it is “high polyreactivity”.
Next, “QVQLVESGGGLVQAGGSLRLSCAASGSTFSGYAMGWYRQAPGKERELVAAITSSGGRTYYADSVKGRFTISRDNAKNTVYLQMNSLKPEDTAVYYCAALYYHEYDYWGQGTQVTVSS”: “low polyreactivity”; “QVQLVESGGGLVQAGGSLRLSCAASGSTFSGYVMGWYRQAPGKERELVAAINGGGGTTYYADSVKGRFTISRDNAKNTVYLQMNSLKPEDTAVYYCAKRSYVTYPPYDYWGQGTQVTVSS”: “high polyreactivity”.
The entry for “QVQLVESGGGLVQAGGSLRLSCAASGSTFSHNAMGWYREATGKERELVAAITAGGITYYADSVKGRFTISRDNAKNTVYLQMNSLKPEETAVYYCAGDFWPSGRGVAFDYWGQGTQVTVSS” is “low polyreactivity”; for “QVQLVESGGGLVQAGGSLRLSCAASGSTFSHYAMGLYRQAPGKERALVAAISSGANTYYADSVKGRFTISRDNAKNTVYLLMNSLKPEDTAVYYCAADYYLAYIFPYDYWGQGSQVTVSS” it is “low polyreactivity”.
With “QVQLVESGGGLVQAGGSLRLSCAASGSTFSINAMGWYRQAPGIERELVAAISRSGGSTYYADSVKGRFTISRDNAKNTVYLQMNSLKPEDTAVYYCAADSRYDYEYWGQGTQVTVSS”, the “polyreactivity (PSR sort gate)” value is “high polyreactivity”.
The entry for “QVQLVESGGGLVQAGGSLRLSCAASGSTFSIYAMGWYRQAPGKERELVAAITRRSGSTYYADSVKGRITISRDNAKNTVSLQMKSLKPEDTAVYYCAADTWRTDYTSSYYKNRDSWGQGTQVTVSS” is “high polyreactivity”.
Next, “QVQLVESGGGLVQAGGSLRLSCAASGSTFSKNTMGWYRKAPGKERELVAAITSGGSTYYADSVKGRFTISRDNAKNTVYLQMNSLKPEDTAVYYCAAGYELYYYIYKMDYWGQGTQVTVSS”: “high polyreactivity”; “QVQLVESGGGLVQAGGSLRLSCAASGSTFSKYAMGWYRQAPGKERELVAAISSRGGSTYYADSVKGRFTISRDNAKNTVYLQMNSLKPEDTAVYYCATYYVYKLYYWGQGTQVTVSS”: “high polyreactivity”; “QVQLVESGGGLVQAGGSLRLSCAASGSTFSKYFMGWYSQAPGKERELVAAISGGDRTYYADSVKGRFTISRDNAKNTVYLQMNSLKTEVTAVYDCAAEVLKTRWSYDYWGQGTQVTVSS”: “high polyreactivity”.
Next, “QVQLVESGGGLVQAGGSLRLSCAASGSTFSLYAMGWYRQAPGIERELVAAIRSSGSTKYADSVKGRFTISRDNAKNTVYLQINSLKPEETAVYYCAAVSVTRADGRSGYEYWGQGTQVTVSS”: “low polyreactivity”; “QVQLVESGGGLVQAGGSLRLSCAASGSTFSLYAMGWYRQAPGKERELVAAISSGGRTYYADSVKGRFTISRDNAKNTVYLQMNSLKPEVTAVYYCAVYVAYLYSYYYWGQGTQVTVSS”: “low polyreactivity”.
For the sequence “QVQLVESGGGLVQAGGSLRLSCAASGSTFSLYAMGWYRQAPGKERELVARISYTDGSTYYADSVKGRFTISRDNAKNTVYLPMNSLKPEDTAVYYCAADAWYSYTLEDSWGQGTQVTVSS”, the “polyreactivity (PSR sort gate)” value is “low polyreactivity”.
Next, “QVQLVESGGGLVQAGGSLRLSCAASGSTFSNYAMGWYRQAPGKDRELVAGIDWSGGSTYYADSVKGRFTISRDNAKNTVYLQMNSLKPEDTAVYYSAKRVWYHGRKLRGYYWGQGTQVTVSS”: “low polyreactivity”; “QVQLVESGGGLVQAGGSLRLSCAASGSTFSPNAMGWSRQAPGKERELVAAITYRGANTYYADSVKGRFTISRDNAKNTVYLQMNSLKPEDTAVYYCAAEYAYHHVGFGYWGQGTQVTVSS”: “low polyreactivity”.
“QVQLVESGGGLVQAGGSLRLSCAASGSTFSPNAMGWYRQATGKERELVAAITYRGANTYYADSVKGRFTISRDNAMITVYFQLNSLKPEDTAVYYCAPEYAYHHVGFGYWRQGTQVTVSS”: the “polyreactivity (PSR sort gate)” value is listed as “low polyreactivity”.
The entry for “QVQLVESGGGLVQAGGSLRLSCAASGSTFSPYAMGWYRPAPGKERELVAAITSGGSTYYADSVKGRFTISRDNAKNTVYLQMNSLKPEDTAVYYCNVVYIRVRRYNYWGQGTQVTVSS” is “high polyreactivity”; for “QVQLVESGGGLVQAGGSLRLSCAASGSTFSPYAMGWYRQAPGKERELVAAISYDGGSTYYADSVKGRFTISRDNAKNTVYLQMNSLKPDDTAGYYCAADYFRSYEGTYWVVASYYYWGQGTQVTVSS” it is “low polyreactivity”.
Next, “QVQLVESGGGLVQAGGSLRLSCAASGSTFSPYAMGWYRQAPGKERELVAAITGSTGSTYYAESVKGRFTISRDNAKNTVYLQMNSLKPEDTAVYYCAAVSSNARHVSRRRGYYWGQGTQVTVSS”: “high polyreactivity”; “QVQLVESGGGLVQAGGSLRLSCAASGSTFSPYVMGWYRQAPGKERELVAAITSGGITNYADSVKGRFTISRDNAKNTVYLQMNSLKPEDTAVYYCNVDRYIRDSWGDYWGQGTQVTVSS”: “high polyreactivity”.
The entry for “QVQLVESGGGLVQAGGSLRLSCAASGSTFSRNAMGWYRQAPGKERELVAAISRRGDTTYYADSVKGRFTISRDNAKNTVYLQMNSLKPEDTAVYYCNRLTIGSSSYDYWGQGTQVTVSS” is “high polyreactivity”.
For the sequence “QVQLVESGGGLVQAGGSLRLSCAASGSTFSRNVMAWYRQAPGKDRELVAAISRGGSTNYADSVKGRFTISRDNAKNTVYLQMNSLKPEDTAVYYCNAPRLGKFYYWGQGTQVTVSS”, the “polyreactivity (PSR sort gate)” value was “low polyreactivity”.
Next, “QVQLVESGGGLVQAGGSLRLSCAASGSTFSRYAMGWYRQAPGKDRELVAAINRSGGSTYYADSVKGRFTISRDNAKNTVYLQMNSLKPEDTAVYYCNKYTGYLHDYWGQGTQVTVSS”: “high polyreactivity”; “QVQLVESGGGLVQAGGSLRLSCAASGSTFSRYAMGWYRQAPGKERELVAAISSGDRTNYADSVKGRFTISRDNAKNTVYLQMNSLKPEDTAVYYCADDLFPIAGEYDYWGQGTQVTVSS”: “high polyreactivity”; “QVQLVESGGGLVQAGGSLRLSCAASGSTFSRYAMGWYRQAPGKERELVAAISWSGGSTYYADSVKGRFTISRDTAKNTVYLQMNSLKPEDTAVYYCAAYTYSFRANHDYWGQGTQVTVSS”: “high polyreactivity”.
Take “QVQLVESGGGLVQAGGSLRLSCAASGSTFSRYAMGWYRQAPGKERELVAAITSNGGRTYYADSVKGRFTISRDNAKNTVYLQMNSLKPEDTAVYYCAAVYYTEYYWGQGTQVTVSS”: the “polyreactivity (PSR sort gate)” value was “high polyreactivity”.

These data come from the nanobody polyreactivity screen of Harvey et al. (2022).
